What follows are sequences tested on Escherichia coli TOP10 (assay: shrunken log2 fold change of peptide-encoding DNA abundance (4.5 h post-induction vs induction); higher = less antimicrobial activity (less host growth inhibition)). Details: time post-induction: 4.5 h; library: site-saturation at positions 5, 18, 19, 20.
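Also: peptides expressed intracellularly from a pBAD plasmid library in pooled LB shake-flask culture, induced with 0.3% L-arabinose, DNA abundance read by NGS, three biological replicates, DESeq2 with apeglm shrinkage.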

Sequence	shrunken log2 fold change
RRIRRRPPRLPRPRPRPHSQPRP	0.0866
RRIRMRPPRLPRPRPRPVWMPRP	0.169
RRIRCRPPRLPRPRPRPGCHPRP	-0.00885
RRIRSRPPRLPRPRPRPTTKPRP	0.0807
RRIRKRPPRLPRPRPRPAFQPRP	0.107
RRIRGRPPRLPRPRPRPHWAPRP	0.362
RRIRCRPPRLPRPRPRPKSHPRP	-0.117
RRIRARPPRLPRPRPRPKHRPRP	0.556
RRIRNRPPRLPRPRPRPDPGPRP	0.0569
RRIRKRPPRLPRPRPRPNKPPRP	-0.0304
RRIRVRPPRLPRPRPRPWDKPRP	-0.0363
RRIRRRPPRLPRPRPRPHVFPRP	2.42
RRIRLRPPRLPRPRPRPKFMPRP	0.149
RRIRFRPPRLPRPRPRPYQWPRP	-0.655
RRIRHRPPRLPRPRPRPLMFPRP	-0.236
RRIRARPPRLPRPRPRPHGCPRP	0.128
RRIRARPPRLPRPRPRPLMMPRP	0.205
RRIRVRPPRLPRPRPRPIYSPRP	-0.203
RRIRRRPPRLPRPRPRPFMQPRP	-0.0994
RRIRHRPPRLPRPRPRPHVNPRP	-0.183
RRIRTRPPRLPRPRPRPTVYPRP	-0.0364
RRIRSRPPRLPRPRPRPVNYPRP	-0.0921
RRIRMRPPRLPRPRPRPWVNPRP	0.0668
RRIRYRPPRLPRPRPRPCYQPRP	-0.285
RRIRERPPRLPRPRPRPDIIPRP	0.0463

Sequence	shrunken log2 fold change
RRIRCRPPRLPRPRPRPYFKPRP	-0.931
RRIRGRPPRLPRPRPRPWKAPRP	0.0375
RRIRHRPPRLPRPRPRPERYPRP	-0.0389
RRIRWRPPRLPRPRPRPYSSPRP	-1.07
RRIRPRPPRLPRPRPRPYHCPRP	-0.0484
RRIRNRPPRLPRPRPRPRNMPRP	-0.171
RRIRMRPPRLPRPRPRPHMKPRP	-0.158
RRIRVRPPRLPRPRPRPPQDPRP	0.27
RRIRARPPRLPRPRPRPQTAPRP	0.188
RRIRRRPPRLPRPRPRPFDWPRP	0.0636
RRIRRRPPRLPRPRPRPHDGPRP	-0.0863
RRIRTRPPRLPRPRPRPENHPRP	-0.119
RRIRRRPPRLPRPRPRPCRFPRP	-0.0495
RRIRWRPPRLPRPRPRPASSPRP	-0.0381
RRIRQRPPRLPRPRPRPCGFPRP	-0.0124
RRIRCRPPRLPRPRPRPSWSPRP	-0.263
RRIRIRPPRLPRPRPRPKWSPRP	0.107
RRIRRRPPRLPRPRPRPQHVPRP	-0.0783
RRIRHRPPRLPRPRPRPKSCPRP	-0.0344
RRIRVRPPRLPRPRPRPCSIPRP	-0.0267
RRIRCRPPRLPRPRPRPWEDPRP	0.156
RRIRSRPPRLPRPRPRPFCVPRP	-0.128
RRIRARPPRLPRPRPRPEDIPRP	0.473
RRIRRRPPRLPRPRPRPFVLPRP	-0.0834
RRIRFRPPRLPRPRPRPWYFPRP	-0.303

Sequence	shrunken log2 fold change
RRIRCRPPRLPRPRPRPDAGPRP	0.122
RRIRARPPRLPRPRPRPHLSPRP	0.0969
RRIRERPPRLPRPRPRPHRSPRP	-0.103
RRIRGRPPRLPRPRPRPFPLPRP	0.227
RRIRIRPPRLPRPRPRPKRLPRP	0.181
RRIRRRPPRLPRPRPRPDHCPRP	-0.0402
RRIRFRPPRLPRPRPRPGYIPRP	-0.0716
RRIRMRPPRLPRPRPRPLGFPRP	0.772
RRIRYRPPRLPRPRPRPMQLPRP	0.219
RRIRWRPPRLPRPRPRPRKLPRP	0.133
RRIRHRPPRLPRPRPRPVKAPRP	-0.0779
RRIRGRPPRLPRPRPRPYKQPRP	0.025
RRIRHRPPRLPRPRPRPAPGPRP	0.536
RRIRERPPRLPRPRPRPRMDPRP	-0.495
RRIRIRPPRLPRPRPRPTNNPRP	-0.629
RRIRERPPRLPRPRPRPLCLPRP	-0.679
RRIRLRPPRLPRPRPRPHDDPRP	-0.115
RRIRVRPPRLPRPRPRPHNHPRP	-0.468
RRIRIRPPRLPRPRPRPNSHPRP	-0.866
RRIRIRPPRLPRPRPRPNHFPRP	-0.694
RRIRFRPPRLPRPRPRPYWVPRP	-0.683
RRIRCRPPRLPRPRPRPRGWPRP	0.605
RRIRPRPPRLPRPRPRPRETPRP	0.574
RRIRERPPRLPRPRPRPEFIPRP	-0.335
RRIRIRPPRLPRPRPRPSDSPRP	-0.0385

Sequence	shrunken log2 fold change
RRIRQRPPRLPRPRPRPGFDPRP	2.69
RRIRHRPPRLPRPRPRPDEKPRP	-0.00141
RRIRKRPPRLPRPRPRPIEVPRP	0.287
RRIRERPPRLPRPRPRPEPFPRP	-0.0469
RRIRGRPPRLPRPRPRPEWAPRP	1.07
RRIRLRPPRLPRPRPRPSHMPRP	-0.228
RRIRCRPPRLPRPRPRPCHVPRP	-0.00144
RRIRVRPPRLPRPRPRPGPKPRP	0.254
RRIRDRPPRLPRPRPRPRVAPRP	0.729
RRIRLRPPRLPRPRPRPHCCPRP	-0.376
RRIRNRPPRLPRPRPRPAGHPRP	0.133
RRIRRRPPRLPRPRPRPDCEPRP	0.363
RRIRMRPPRLPRPRPRPSWLPRP	0.0725
RRIRNRPPRLPRPRPRPRQFPRP	0.0733
RRIRQRPPRLPRPRPRPFCAPRP	0.184
RRIRRRPPRLPRPRPRPYHPPRP	-0.34
RRIRQRPPRLPRPRPRPWYVPRP	-0.0198
RRIRHRPPRLPRPRPRPNCAPRP	0.0721
RRIRNRPPRLPRPRPRPEIEPRP	0.0339
RRIRYRPPRLPRPRPRPSARPRP	-0.137
RRIRYRPPRLPRPRPRPCMFPRP	-0.981
RRIRMRPPRLPRPRPRPLMMPRP	0.452
RRIRDRPPRLPRPRPRPDERPRP	0.0336
RRIRSRPPRLPRPRPRPGNVPRP	-0.0126
RRIRARPPRLPRPRPRPYQLPRP	-0.215

Sequence	shrunken log2 fold change
RRIRKRPPRLPRPRPRPNIIPRP	0.00713
RRIRMRPPRLPRPRPRPRAWPRP	0.32
RRIRGRPPRLPRPRPRPMKKPRP	1.17
RRIRTRPPRLPRPRPRPYDTPRP	-0.661
RRIRTRPPRLPRPRPRPDGTPRP	-0.208
RRIRDRPPRLPRPRPRPISTPRP	-0.146
RRIRQRPPRLPRPRPRPAVVPRP	0.242
RRIRFRPPRLPRPRPRPRCDPRP	0.0576
RRIRPRPPRLPRPRPRPMMEPRP	0.0824
RRIRMRPPRLPRPRPRPTIPPRP	-0.316
RRIRSRPPRLPRPRPRPTVCPRP	0.0523
RRIRDRPPRLPRPRPRPFWAPRP	0.141
RRIRPRPPRLPRPRPRPDREPRP	0.0682
RRIRNRPPRLPRPRPRPPRWPRP	0.147
RRIRERPPRLPRPRPRPAGFPRP	0.67
RRIRYRPPRLPRPRPRPRWAPRP	-0.0106
RRIRIRPPRLPRPRPRPYGWPRP	-0.0644
RRIRHRPPRLPRPRPRPRTSPRP	0.245
RRIRDRPPRLPRPRPRPTWKPRP	0.0856
RRIRNRPPRLPRPRPRPNQQPRP	-0.0748
RRIRCRPPRLPRPRPRPLMGPRP	-0.214
RRIRKRPPRLPRPRPRPKKSPRP	0.575
RRIRERPPRLPRPRPRPMTSPRP	-0.212
RRIRMRPPRLPRPRPRPDPVPRP	-0.0377
RRIRTRPPRLPRPRPRPKDIPRP	-0.482

Sequence	shrunken log2 fold change
RRIRFRPPRLPRPRPRPQMNPRP	-0.709
RRIRERPPRLPRPRPRPLVSPRP	-0.055
RRIRLRPPRLPRPRPRPYMHPRP	-0.408
RRIRHRPPRLPRPRPRPGLGPRP	0.404
RRIRCRPPRLPRPRPRPGITPRP	-0.232
RRIRFRPPRLPRPRPRPALGPRP	0.423
RRIRQRPPRLPRPRPRPIVYPRP	-0.311
RRIRRRPPRLPRPRPRPRWDPRP	0.457
RRIRPRPPRLPRPRPRPHNTPRP	-0.481
RRIRMRPPRLPRPRPRPLICPRP	0.108
RRIRYRPPRLPRPRPRPTFLPRP	-0.495
RRIRYRPPRLPRPRPRPNHPPRP	-0.125
RRIRPRPPRLPRPRPRPFDLPRP	-0.736
RRIRHRPPRLPRPRPRPVIVPRP	-0.204
RRIRSRPPRLPRPRPRPDCSPRP	0.0664
RRIRQRPPRLPRPRPRPCTQPRP	-0.0306
RRIRSRPPRLPRPRPRPGCTPRP	0.22
RRIRVRPPRLPRPRPRPPPHPRP	0.676
RRIRFRPPRLPRPRPRPKPDPRP	0.463
RRIRLRPPRLPRPRPRPNMQPRP	-0.171
RRIRMRPPRLPRPRPRPGKAPRP	0.153
RRIRLRPPRLPRPRPRPMKCPRP	0.131
RRIRQRPPRLPRPRPRPSFCPRP	0.462
RRIRYRPPRLPRPRPRPCYGPRP	-0.211
RRIRFRPPRLPRPRPRPNKEPRP	0.0307
